Measured values: patent US20220298260A1 (MYTHIC THERAPEUTICS, published 2022)
Positions count from the first letter of the chain named. Values belong to the binder of their own block, whether it stands above or below them.

Experiments:
[1] = target: T1, FOLR1 (R&D Systems, Cat #5646-FR) (human, UniProt P15328 25-233); assay: BLI, IgG on anti-human Fc sensor
T1 construct: Bought soluble protein; also called Folate Receptor 1

[2] = target: T1, FOLR1 (R&D Systems, Cat #5646-FR); assay: BLI, IgG on anti-human Fc sensor, 50 nM FOLR1

T1 sequence (P15328 25-233 limits assumed): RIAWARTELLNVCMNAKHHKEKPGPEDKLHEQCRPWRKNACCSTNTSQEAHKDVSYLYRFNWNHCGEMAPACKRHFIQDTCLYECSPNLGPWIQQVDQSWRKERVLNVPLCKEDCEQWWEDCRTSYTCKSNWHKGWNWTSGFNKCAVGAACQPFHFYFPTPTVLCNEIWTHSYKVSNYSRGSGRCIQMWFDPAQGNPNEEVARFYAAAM

B1: MYT0613 (antibody, V domains shown)
VH: QVQLVQSGAEVVKPGASVKISCKASGYTFTGYFMNWVKQSPGQSLEWIGRIHHYDGDTFYNQKFQGKATLTVDKSSNTAHMELLSLTSEDFAVYYCTRYDGSRAMDYWGQGTTVTVSS
VL: DIVLTQSPLSLAVSLGQPAIISCKASQSVSFAGTSLMHWYHQKPGQQPRLLIYRASNLEAGVPDRFSGSGSKTDFTLTISPVEAEDAATYYCQQSREYPYTFGGGTKLEIK
notes: IgG
- binding result [1]: no binding (tested: 50 nM)

B12: MYT4524 (antibody, V domains shown)
VH: EVQLVESGGGVVQPGRSLRLSCSASGFTFSGYGLSWVRQAPGKGLEWVAMISSGGSYTYYADSVKGRFAISRDNAKNTLFLQMDSLRPEDTGVYFCARHGDDPAWFAYWGQGTPVTVSS
VL: DIQLTQSPSSLSASVGDRVTITCSVSSSISHNNLHWYQQKPGKAPKPWIYGTSNLASGVPSRFSGSGSGTDYTFTISSLQPEDIATYYCQQWSSYPYMYTFGQGTKVEIK
notes: IgG
- binding result [2]: binds

B13: MYT4545 (antibody, V domains shown)
VH: B12 VH
VL: B12 VL with H31S, Y99H
notes: IgG
- binding result [2]: binds

B14: MYT4527 (antibody, V domains shown)
VH: B12 VH
VL: B12 VL with H31S, L34H
notes: IgG
- binding result [2]: binds

B15: MYT4532 (antibody, V domains shown)
VH: B12 VH
VL: B12 VL with H31S, N54H
notes: IgG
- binding result [2]: binds

B16: MYT4541 (antibody, V domains shown)
VH: B12 VH
VL: B12 VL with H31S, Y95H
notes: IgG
- binding result [2]: binds

B17: MYT4535 (antibody, V domains shown)
VH: B12 VH
VL: B12 VL with H31S, S57H
notes: IgG
- binding result [2]: binds

B18: MYT4534 (antibody, V domains shown)
VH: B12 VH
VL: B12 VL with H31S, A56H
notes: IgG
- binding result [2]: binds

B19: MYT4544 (antibody, V domains shown)
VH: B12 VH
VL: B12 VL with H31S, M98H
notes: IgG
- binding result [2]: binds

B20: MYT4529 (antibody, V domains shown)
VH: B12 VH
VL: B12 VL with H31S, G51H
notes: IgG
- binding result [2]: binds

B22: MYT4522 (antibody, V domains shown)
VH: B12 VH
VL: B12 VL with I29H, H31S
notes: IgG
- binding result [2]: binds

B24: MYT4542 (antibody, V domains shown)
VH: B12 VH
VL: B12 VL with H31S, P96H
notes: IgG
- binding result [2]: binds

B25: MYT2222 (antibody, V domains shown)
VH: B12 VH with A107H
VL: B12 VL with H31S
notes: IgG
- binding result [2]: binds

B26: MYT4526 (antibody, V domains shown)
VH: B12 VH
VL: B12 VL with H31S, N33H
notes: IgG
- binding result [2]: binds

B27: MYT4533 (antibody, V domains shown)
VH: B12 VH
VL: B12 VL with H31S, L55H
notes: IgG
- binding result [2]: binds

B28: MYT4523 (antibody, V domains shown)
VH: B12 VH
VL: B12 VL with S30H, H31S
notes: IgG
- binding result [2]: binds

B29: MYT4531 (antibody, V domains shown)
VH: B12 VH
VL: B12 VL with H31S, S53H
notes: IgG
- binding result [2]: binds

B30: MYT4539 (antibody, V domains shown)
VH: B12 VH
VL: B12 VL with H31S, S93H
notes: IgG
- binding result [2]: binds

B31: MYT2223 (antibody, V domains shown)
VH: B12 VH with Y108H
VL: B12 VL with H31S
notes: IgG
- binding result [2]: binds

B32: MYT4528 (antibody, V domains shown)
VH: B12 VH
VL: B12 VL with H31S, H35A
notes: IgG
- binding result [2]: binds

B33: MYT4536 (antibody, V domains shown)
VH: B12 VH
VL: B12 VL with H31S, Q90H
notes: IgG
- binding result [2]: binds

B34: MYT4530 (antibody, V domains shown)
VH: B12 VH
VL: B12 VL with H31S, T52H
notes: IgG
- binding result [2]: binds

B36: MYT4520 (antibody, V domains shown)
VH: B12 VH
VL: B12 VL with S27H, H31S
notes: IgG
- binding result [2]: binds

B37: MYT4521 (antibody, V domains shown)
VH: B12 VH
VL: B12 VL with S28H, H31S
notes: IgG
- binding result [2]: binds

B38: MYT4543 (antibody, V domains shown)
VH: B12 VH
VL: B12 VL with H31S, Y97H
notes: IgG
- binding result [2]: binds

B39: MYT4540 (antibody, V domains shown)
VH: B12 VH
VL: B12 VL with H31S, S94H
notes: IgG
- binding result [2]: binds

B40: MYT4546 (antibody, V domains shown)
VH: B12 VH
VL: B12 VL with H31S, T100H
notes: IgG
- binding result [2]: binds

B41: MYT4538 (antibody, V domains shown)
VH: B12 VH
VL: B12 VL with H31S, W92H
notes: IgG
- binding result [2]: binds

B43: MYT4537 (antibody, V domains shown)
VH: B12 VH
VL: B12 VL with H31S, Q91H
notes: IgG
- binding result [2]: binds

Next, values leading:

- binding result [1]: no binding (tested: 50 nM)
B2: MYT0631 (antibody, V domains shown)
VH: B1 VH with H53P, G101H
VL: B1 VL
notes: IgG

- binding result [1]: no binding (tested: 50 nM)
B3: MYT0634 (antibody, V domains shown)
VH: B1 VH with H53P, A104H
VL: B1 VL
notes: IgG

- binding result [1]: no binding (tested: 50 nM)
B4: MYT2244 (antibody, V domains shown)
VH: EVQLVESGGGLVQPGGSLRLSCAASGFNIRTQSIHWVRQAPGKGLEWIGDIFPIDGITHYADSVKGRFTISADTSKNTAYLQMNSLRAEDTAVYYCARGSWSWPSGMDYYLDYWGQGTLVTVSS
VL: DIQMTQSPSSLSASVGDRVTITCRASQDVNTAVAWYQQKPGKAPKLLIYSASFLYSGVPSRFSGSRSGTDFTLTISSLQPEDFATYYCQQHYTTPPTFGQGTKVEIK
notes: IgG

- binding result [1]: no binding (tested: 50 nM)
B5: MYT2259 (antibody, V domains shown)
VH: B4 VH with H59D, P104H
VL: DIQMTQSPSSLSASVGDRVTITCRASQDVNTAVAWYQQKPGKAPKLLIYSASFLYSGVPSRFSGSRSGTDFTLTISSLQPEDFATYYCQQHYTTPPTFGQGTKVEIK
notes: IgG

- binding result [1]: no binding (tested: 50 nM)
B6: MYT2254 (antibody, V domains shown)
VH: B4 VH with H59D, G99H
VL: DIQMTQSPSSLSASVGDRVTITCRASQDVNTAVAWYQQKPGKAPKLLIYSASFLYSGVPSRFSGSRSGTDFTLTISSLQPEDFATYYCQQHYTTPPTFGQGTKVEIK
notes: IgG

- binding result [1]: no binding (tested: 50 nM)
B7: MYT4503 (antibody, V domains shown)
VH: B4 VH with H59D
VL: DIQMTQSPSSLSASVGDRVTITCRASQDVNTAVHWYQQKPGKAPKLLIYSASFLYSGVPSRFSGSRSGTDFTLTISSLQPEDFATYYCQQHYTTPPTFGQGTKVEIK
notes: IgG

- binding result [1]: no binding (tested: 50 nM)
B8: MYT2252 (antibody, V domains shown)
VH: B4 VH with H59D, A97H
VL: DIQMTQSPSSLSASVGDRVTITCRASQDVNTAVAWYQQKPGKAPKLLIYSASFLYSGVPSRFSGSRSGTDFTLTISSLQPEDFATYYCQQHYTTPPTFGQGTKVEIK
notes: IgG

- binding result [1]: no binding (tested: 50 nM)
B9: MYT2261 (antibody, V domains shown)
VH: B4 VH with H59D, G106H
VL: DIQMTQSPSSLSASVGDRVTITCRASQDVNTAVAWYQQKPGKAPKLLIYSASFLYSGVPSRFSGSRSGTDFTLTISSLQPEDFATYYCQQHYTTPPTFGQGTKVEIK
notes: IgG

- binding result [1]: no binding (tested: 50 nM)
B10: MYT4501 (antibody, V domains shown)
VH: B4 VH with H59D
VL: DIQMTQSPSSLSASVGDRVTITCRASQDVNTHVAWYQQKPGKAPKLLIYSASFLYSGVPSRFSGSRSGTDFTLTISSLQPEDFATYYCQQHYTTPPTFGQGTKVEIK
notes: IgG

- binding result [1]: no binding (tested: 50 nM)
B11: MYT2194 (antibody, V domains shown)
VH: B12 VH with S35H
VL: B12 VL with H31S
notes: IgG

- binding result [1]: no binding (tested: 50 nM)
B21: MYT2196 (antibody, V domains shown)
VH: B12 VH with I51H
VL: B12 VL with H31S
notes: IgG

- binding result [1]: no binding (tested: 50 nM)
B23: MYT2195 (antibody, V domains shown)
VH: B12 VH with M50H
VL: B12 VL with H31S
notes: IgG

- binding result [1]: no binding (tested: 50 nM)
B35: MYT2215 (antibody, V domains shown)
VH: B12 VH with G100H
VL: B12 VL with H31S
notes: IgG

- binding result [1]: no binding (tested: 50 nM)
B42: MYT2217 (antibody, V domains shown)
VH: B12 VH with D102H
VL: B12 VL with H31S
notes: IgG
